Data set [1] deals with Tau (hTau42, longest isoform, unphosphorylated) (Homo sapiens). The data set can be described thus: SPR (kinetic). Conditions: average of six determinations, 18-22 C; Kd given as 0.04 uM; immobilized on polylysine-heparin-polylysine gold surface; 10 mM Hepes, 0.1 M NaCl, pH 7; SPR at 13-33 C, DNA immobilized on polylysine-heparin-polylysine gold surface.
Data set [2] shares this test system. The data set can be described thus: SPR (equilibrium saturation). Conditions: immobilized on polylysine-heparin-polylysine gold surface; 10 mM Hepes, 0.1 M NaCl, pH 7; SPR at 13-33 C, DNA immobilized on polylysine-heparin-polylysine gold surface.

As for “calf thymus DNA (activated type XV, Sigma)”, the results for the Ka in data set [1] and in data set [2] were 2.4 10^7 M^-1 and 2.3 10^7 M^-1, respectively.

The values above are taken from paper PMC4134230.
